This test concerns the target GST-Dyn2(DQR)_(motor) (D1406A/Q1407A/R1410A mutant of GST-Dyn2_(motor)) (human) (UniProt Q8NCM8).

Drawing on article PMC5420313, this text covers maximum velocity of microtubule gliding by the unstacked GST-Dyn2(DQR) (motor) for one substance.

Substance “GST-Dyn2(DQR)_(motor) (D1406A/Q1407A/R1410A mutant of GST-Dyn2_(motor)), Q8NCM8 1091-4307” returned a maximum velocity of microtubule gliding by the unstacked GST-Dyn2(DQR) (motor) of 562 nm/s.
